The results in this text go back to patent publication US10597674B2, “HPPD variants and methods of use” (BASF Agricultural Solutions Seed, US LLC, priority 2015, dated 2020).

Where a chain is given by its changes, count along the chain named. Like-named read-outs stand apart in the source and are kept apart here.

Data set [1] concerns E. coli cells expressing an HPPD polypeptide. The experiment in a line: Brown color bioassay in liquid culture, residual brown color formation (BCF), OD440 after 96 hours. The format is cell-based. The note with it: for Control BCF OD440nm: brown color formation in absence of Cmpd. 1, culture supernatant after 96 hours, 5 mM HPP; for Residual BCF OD440nm [%]: brown color formation with Cmpd. 1 (1000 μM) relative to without, after 96 hours. The procedure:
In an additional experiment, mutant HPPD polypeptides were analyzed using the principle of a colorimetric brown color assay (as, for example, described in U.S. Pat. No. 6,768,044). Bacterial cells expressing the HPPD polypeptides according to this invention were assayed in 96 well plate format (Nunc® 96 DeepWell™ plate, Sigma-Aldrich, St. Louis, USA) for HPPD polypeptides with improved HPPD inhibitor herbicide tolerance.
E. coli cells were grown in liquid LB medium (Carl Roth GmbH+Co. KG, Karlsruhe, Germany) containing the selection agent for the expression vector pSE420(RI)NX (WO2014/043435) and 5 mM para-hydroxyphenylpyruvate (HPP; Sigma-Aldrich, St. Louis, USA), in the presence of absence of the HPPD inhibitor herbicide e.g. Cmpd. 1 (1000 μM). An overnight culture of E. coli culture expressing one of the respective HPPD polypeptides according to this invention were adjusted to an OD600 of 0.3-0.5 in a final volume of 500 μL and incubated at 30 degree Celsius. Residual brown color formation was determined by measuring the brown color formation (BCF) in the presence and absence of Cmpd. […] Therefore, after 96 hours the culture was centrifuged and the supernatant of the culture was used to measure the optical density of the soluble brown pigment formation at 440 nm (OD440 nm).

In data set [2] the test system is HPPD polypeptides (wild-type SEQ ID NO:1 and mutants). The procedure:
For the generation of crude HPPD polypeptide extract in micro titer plates (MTP) for the determination of residual activity in inhibition assays, cells were grown in 40 or 150 μl LB medium containing 1% Glucose (Merck, Darmstadt, Germany) and 100 μg/ml ampicillin in a standard 96 well plate (Thermo Fisher Scientific, Waltham, USA) incubated for about 18 h in a humidity incubator at 37° C.
30 μl of this starter culture were added to 600 μl LB medium containing 100 μg/ml ampicillin and 150 mM Hepes (Merck, Darmstadt, Germany) as inoculum for the expression culture in 96 well plates (2 ml deep wells; HJ Bioanalytik, Erkelenz, Germany) The plates were sealed by an aluminium foil, and cells were incubated for 5 h at 37° C. on a plate shaker at 750 rpm. The expression was induced by addition of IPTG in a final concentration of 1 mM followed by further sealed incubation for about 18 h at 30° C. on a plate shaker at 750 rpm.
Cells were harvested by centrifugation at 4° C., 2500 g for 15 min discarding the supernatant. Cell pellets were stored at −80° C. and lysed in 250 μl 1× BugBuster® (Merck, Darmstadt, Germany) in 140 mM Tris (pH 7.8), with 1:25000 diluted BNase® (Qiagen, Hilden, Germany) by incubation of the resuspended cells for 30 min at 4° C. and 1000 rpm. Lysates were clarified by centrifugation for 15 min at 4° C., 2500 g, and 150 μl supernatant were transferred in standard 96 well plate (Thermo Fisher Scientific, Waltham, USA) for subsequent testing in quadruplets.
The activity of HPPD polypeptides was determined in absence or presence of HPPD inhibitors using the coupled HPPD activity assay (FIG. 1).
For the determination of the residual activity, the apparent kinetic constant (kapp) of the determined substrate conversion was measured as kinetic changes in absorbance at 320 nm in a coupled assay, in that homogentisate (HGA) formed by HPPD from HPP is directly converted into the well absorbing molecule maleylacetoacetate (MAA) by a second enzyme homogentisate dioxygenase (HGD), applied in excess uniformly in all assays (see FIG. 1). The measurements were performed in 384 micro titer plates (Greiner Bio-One GmbH, Frickenhausen, Germany) by plate readers (Tecan infinite M1000 or M1000PRO, Tecan, Männedorf, Switzerland). The kcat/kM ratio of an enzymatic activity is proportional to the apparent kinetic constant kapp and is proportional to kcat/kM*[E] ([E]=enzyme concentration). […] As both kapp measurements in the presence and absence of inhibitor were performed by use of the identical enzyme sample, crude or purified, and thereby at the same enzyme concentration, the enzyme concentration eliminates from the calculation of residual activity and the ratio of both kapp directly indicates the change of kM due to the inhibition.

[3] abbreviates: in the presence of Cmpd. 1, 15 μM inhibitor, high substrate concentration, kapp normalized to kapp without inhibitor.
Setting [4] is: in the presence of Cmpd. 1, 15 μM inhibitor, high substrate concentration, total change in signal normalized to no inhibitor.
The mark [5] stands for this setting: in the presence of Cmpd. 2, 15 μM inhibitor, high substrate concentration, kapp normalized to kapp without inhibitor.
Setting [6] is: in the presence of Cmpd. 2, 15 μM inhibitor, high substrate concentration, total change in signal normalized to no inhibitor.
Setting [7] is: in the presence of diketonitrile (DKN), 60 μM inhibitor, high substrate concentration, kapp normalized to kapp without inhibitor.
Where [8] appears, read: in the presence of diketonitrile (DKN), 60 μM inhibitor, high substrate concentration, total change in signal normalized to no inhibitor.
Where [9] appears, read: in the presence of mesotrione (MST), 60 μM inhibitor, high substrate concentration, kapp normalized to kapp without inhibitor.
[10] abbreviates: in the presence of mesotrione (MST), 60 μM inhibitor, high substrate concentration, total change in signal normalized to no inhibitor.

As for `Cc1nnc(NC(=O)c2ccc(C(F)(F)F)c(S(C)(=O)=O)c2C)o1` [Cmpd. 2, 2-methyl-N-(5-methyl-1,3,4-oxadiazol-2-yl)-3-(methylsulfonyl)-4-(trifluoromethyl)benzamide, reference compound], the “Control BCF OD440nm” value in data set [1] worked out at 2.68. Further, the “Residual BCF OD440nm [%]” value in data set [1] is 18%. Also, the Residual activity is on record as 39% in data set [2] (setting [3]), 51% in data set [2] (setting [5]), 86% in data set [2] (setting [7]) and 71% in data set [2] (setting [9]). The Residual turnover in data set [2] (setting [4]) came out at 50%; in data set [2] (setting [6]), 72%; in data set [2] (setting [8]) it was 93%; in data set [2] (setting [10]), 85%.

B1: 14 (protein)
chain: MADLYENPMGLMGFEFIEFASPTPGTLEPIFEIMGFTKVATHRSKNVHLYRQGEINLILNNEPNSIASYFAAEHGPSVCGMAFRVKDSQKAYNRALELGAQPIHIDTGPMELNLPAIKGIGGAPLYLIDRFGEGSSIYDIDFVYLEGVERNPVGAGLKVIDHLTHNVYRGRMVYWANFYEKLFNFREARYFDIKGEYTGLTSKAMSAPDGMIRIPLNEESSKGAGQIEEFLMQFNGEGIQHVAFLTDDLVKTWDALKKIGMRFMTAPPDTYYEMLEGRLPDHGEPVDQLQARGILLDGSSVEGDKRLLLQIFSETLMGPVFFEFIQRKGHDGFGPDSFKVLFESVERDQVRRGVLTAD
modifications: mutant HPPD polypeptide
Regarding B1, the “Control BCF OD440nm” value in data set [1] was 1.42. In data set [1], the “Residual BCF OD440nm [%]” value was 63%. The Residual activity in data set [2] (setting [3]) worked out at 44%; in data set [2] (setting [5]), 82%; in data set [2] (setting [7]) it was 91%; in data set [2] (setting [9]), 70%. The Residual turnover is 60% in data set [2] (setting [4]), 92% in data set [2] (setting [6]), “n.i” in data set [2] (setting [8]) and 89% in data set [2] (setting [10]).

B2: 29 (protein)
chain: B1 chain with P268S, T270S, H330D, D336H
modifications: mutant HPPD polypeptide
Regarding B2, the “Control BCF OD440nm” value in data set [1] stood at 2.03. In data set [1], the “Residual BCF OD440nm [%]” value was 42%. For the same molecule, the Residual activity in data set [2] (setting [3]) came to 33%; in data set [2] (setting [5]) it was 85%; in data set [2] (setting [7]) it was 94%; in data set [2] (setting [9]) it was 79%. Further, the Residual turnover in data set [2] (setting [4]) is listed as 59%; in data set [2] (setting [6]) it was “n.i”; in data set [2] (setting [8]) it was “n.i”; in data set [2] (setting [10]), 95%.

B3: 30 (protein)
chain: B1 chain with P268S, T270S, H330D, D336H, V345K
modifications: mutant HPPD polypeptide
For B3, the “Control BCF OD440nm” value in data set [1] was 1.70. Further, the “Residual BCF OD440nm [%]” value in data set [1] is 56%. In addition, the Residual activity in data set [2] (setting [3]) is given as 39%; in data set [2] (setting [5]) it was 95%; in data set [2] (setting [7]) it was “n.i. (no inhibition was observed under the given conditions)”; in data set [2] (setting [9]), 87%. Moreover, the Residual turnover in data set [2] (setting [4]) is on record as 65%; in data set [2] (setting [6]), “n.i”; in data set [2] (setting [8]) it was “n.i”; in data set [2] (setting [10]), “n.i”.

B4: 19 (protein)
chain: B1 chain with M264R, P268G, T270E
modifications: mutant HPPD polypeptide
With B4, the “Control BCF OD440nm” value in data set [1] is 1.65. In addition, the “Residual BCF OD440nm [%]” value in data set [1] came out at 60%. Moreover, the Residual activity is 68% in data set [2] (setting [3]); 92% in data set [2] (setting [5]); “n.i. (no inhibition was observed under the given conditions)” in data set [2] (setting [7]); 51% in data set [2] (setting [9]); 67% in data set [2] (kapp in presence of 50 μM Cmpd. 1, normalised to kapp without inhibitor, low substrate concentration). Further, the Residual turnover in data set [2] (setting [4]) is 79%; in data set [2] (setting [6]), 93%; in data set [2] (setting [8]) it was “n.i”; in data set [2] (setting [10]), 78%; in data set [2] (total change in signal in presence of 50 μM Cmpd. 1, normalised to that without inhibitor, low substrate concentration), 88%.

B5: 22 (protein)
chain: B1 chain with H330D, D336H, V345I
modifications: mutant HPPD polypeptide
B5: the “Control BCF OD440nm” value in data set [1] was 1.67. Moreover, the “Residual BCF OD440nm [%]” value in data set [1] was determined as 58%. In addition, the Residual activity is listed as 26% in data set [2] (setting [3]), 90% in data set [2] (setting [5]), “n.i” in data set [2] (setting [7]) and 77% in data set [2] (setting [9]). Besides, the Residual turnover in data set [2] (setting [4]) was 53%; in data set [2] (setting [6]), “n.i”; in data set [2] (setting [8]), “n.i”; in data set [2] (setting [10]) it was 99%.

B6: 24 (protein)
chain: B1 chain with H330D, D336H
modifications: mutant HPPD polypeptide
B6: in data set [1], the “Control BCF OD440nm” value was 1.56. In addition, in data set [1], the “Residual BCF OD440nm [%]” value is 48%. Moreover, the Residual activity in data set [2] (setting [3]) was 28%; in data set [2] (setting [5]), 90%; in data set [2] (setting [7]), 93%; in data set [2] (setting [9]) it was 51%. The Residual turnover in data set [2] (setting [4]) is given as 57%; in data set [2] (setting [6]), “n.i”; in data set [2] (setting [8]), “n.i”; in data set [2] (setting [10]) it was 68%.

B7: 7 (protein)
chain: B1 chain with H330D, V340A, V345I
modifications: mutant HPPD polypeptide
B7: the “Control BCF OD440nm” value in data set [1] was found to be 1.83. Besides, the “Residual BCF OD440nm [%]” value in data set [1] amounted to 40%. The Residual activity amounted to 27% in data set [2] (setting [3]), 75% in data set [2] (setting [5]), 79% in data set [2] (setting [7]) and 70% in data set [2] (setting [9]). The Residual turnover amounted to 38% in data set [2] (setting [4]), 83% in data set [2] (setting [6]), 92% in data set [2] (setting [8]) and 85% in data set [2] (setting [10]).

B8: 21 (protein)
chain: B1 chain with H330D, D336H, V340A, V345I
modifications: mutant HPPD polypeptide
With B8, the “Control BCF OD440nm” value in data set [1] was 0.99. For the same molecule, in data set [1], the “Residual BCF OD440nm [%]” value is reported as 65%. The Residual activity in data set [2] (setting [3]) stood at 18%; in data set [2] (setting [5]), 73%; in data set [2] (setting [7]) it was 81%; in data set [2] (setting [9]), 62%. In addition, the Residual turnover is recorded as 30% in data set [2] (setting [4]), 84% in data set [2] (setting [6]), “n.i” in data set [2] (setting [8]) and 89% in data set [2] (setting [10]).
